Measurements published in US20210253737A1.

Experiments:
[1] = target: carboxymethyl lysine conjugated to keyhole limpet hemocyanin (CML-KLH); assay: direct binding ELISA, CML-KLH coat 1 µg/mL, antibody at 5.56 µg/mL
[2] = target: carboxymethyl lysine conjugated to keyhole limpet hemocyanin (CML-KLH); assay: direct binding ELISA, CML-KLH coat 1 µg/mL, antibody at 1.85 µg/mL
[3] = target: carboxymethyl lysine conjugated to keyhole limpet hemocyanin (CML-KLH); assay: direct binding ELISA, CML-KLH coat 1 µg/mL, antibody at 0.21 µg/mL
[4] = target: carboxymethyl lysine conjugated to keyhole limpet hemocyanin (CML-KLH); assay: direct binding ELISA, CML-KLH coat 1 µg/mL, antibody at 16.67 µg/mL
[5] = target: carboxymethyl lysine conjugated to keyhole limpet hemocyanin (CML-KLH); assay: direct binding ELISA, CML-KLH coat 1 µg/mL, antibody at 0.07 µg/mL
[6] = target: carboxymethyl lysine conjugated to keyhole limpet hemocyanin (CML-KLH); assay: direct binding ELISA, CML-KLH coat 1 µg/mL, antibody at 0.62 µg/mL
[7] = target: carboxymethyl lysine conjugated to keyhole limpet hemocyanin (CML-KLH); assay: direct binding ELISA, CML-KLH coat 1 µg/mL, antibody at 50 µg/mL
[8] = target: carboxymethyl lysine conjugated to keyhole limpet hemocyanin (CML-KLH); assay: direct binding ELISA, CML-KLH coat 1 µg/mL, antibody at 0 µg/mL (buffer control well, background)

OD450 [1]: 0.165 OD450
OD450 [2]: 0.092 OD450
OD450 [3]: 0.075 OD450
OD450 [4]: 0.312 OD450
OD450 [5]: 0.086 OD450
OD450 [6]: 0.083 OD450
OD450 [7]: 0.462 OD450
OD450 [8]: 0.09 OD450
Substance: carboxymethyl lysine MAb (Clone 318003), R&D Systems, Inc., catalog no. MAB3247 (antibody)
